Molecular target: T1, mmLRRC8A with C-terminal EGFP and HA-tag (Mus musculus), Q80WG5
T1 chain: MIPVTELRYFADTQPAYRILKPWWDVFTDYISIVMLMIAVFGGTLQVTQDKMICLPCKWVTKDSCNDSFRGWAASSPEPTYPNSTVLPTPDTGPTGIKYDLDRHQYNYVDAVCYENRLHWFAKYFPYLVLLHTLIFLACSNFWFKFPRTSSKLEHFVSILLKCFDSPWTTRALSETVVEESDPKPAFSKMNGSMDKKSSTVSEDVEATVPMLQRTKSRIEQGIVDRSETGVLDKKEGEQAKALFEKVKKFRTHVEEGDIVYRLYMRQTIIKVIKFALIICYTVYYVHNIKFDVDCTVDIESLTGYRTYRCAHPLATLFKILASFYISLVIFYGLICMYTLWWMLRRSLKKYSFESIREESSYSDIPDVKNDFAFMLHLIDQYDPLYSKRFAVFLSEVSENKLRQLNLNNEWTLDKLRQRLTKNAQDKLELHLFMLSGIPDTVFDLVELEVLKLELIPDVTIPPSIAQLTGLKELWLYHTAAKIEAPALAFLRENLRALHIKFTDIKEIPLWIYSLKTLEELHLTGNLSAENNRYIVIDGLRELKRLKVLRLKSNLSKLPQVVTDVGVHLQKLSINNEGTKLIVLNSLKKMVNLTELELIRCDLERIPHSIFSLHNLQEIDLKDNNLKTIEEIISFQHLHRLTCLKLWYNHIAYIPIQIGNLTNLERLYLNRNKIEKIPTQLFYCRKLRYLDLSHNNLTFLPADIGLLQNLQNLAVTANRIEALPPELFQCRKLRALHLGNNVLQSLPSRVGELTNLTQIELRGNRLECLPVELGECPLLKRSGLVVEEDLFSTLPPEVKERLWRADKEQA
Test: single molecule pulldown with stepwise photobleaching subunit counting
Details: remark: other sources report otherwise

stoichiometry N: 6
B1: mmLRRC8A with C-terminal EGFP and HA-tag, Q80WG5 1-810 (natural protein)
chain: T1 chain

Reference: doi:10.1101/2022.07.31.502239
